Columns and labels:
[1] = tested on: baboon smooth muscle cells; test: Inhibition of PDGF-BB mitogenic activity on baboon smooth muscle cells ([3H] thymidine incorporation); format: cell-based; conditions: vehicle 74
Protocol: NNC92-0270 was analyzed for the ability to inhibit the mitogenic activity of PDGF on baboon smooth muscle cells. All mitogenesis assays performed on baboon vascular smooth muscle cells (BVSMCs) were done on primary cultures of cells between passages 13 and 20 in culture. The initial cultures were established from outgrowth of aortic tissue explants. Baboon smooth muscle cells were plated at approximately 20,000 cells per well, in DMEM supplemented with 10% fetal calf serum, into 24-well culture dishes. One day prior to use the culture media was removed, and 1 ml of Mito Media (Table 5) was added to each well to allow the cells to become quiescent. At the time of the experiment the cells were stimulated with PDGF-BB. […] 20× stock solutions were made for each of the PDGF concentrations by dilution in 10 mM acetic acid containing 0.25% albumin, and 50 ul PDGF or dilution vehicle alone was added to the culture wells.
To analyze the activity of NNC92-0270 to neutralize PDGF-BB mitogenic activity, 1 ng/ml of PDGF was added to wells along with dilutions of NNC92-0270. The cells were incubated with the test samples for approximately 20 hours at 37 ° C. Fifty microliters of a 20× stock solution of [3H] Thymidine was then added to each well to give a final concentration of 1 μCi/ml. The cells were incubated for 4 hours at 37 ° C., washed with PBS, then harvested with trypsin and counted for [^3 H] thymidine incorporation in a Wallac (Turku, Finland) Betaplate™ liquid scintillation counter.
NNC92-0270 was incubated with 1 ng/ml of PDGF-BB in the presence of 0.5 U/ml of unfractionated heparin. The cells were pulse labeled with [^3 H] thymidine as described above and the level of [^3 H] thymidine determined.

[2] = tested on: baboon smooth muscle cells; test: Wash-out study of PDGF-BB mitogenic activity on baboon smooth muscle cells; format: cell-based; conditions: T = -24 hrs 0.5% DMSO; T = 0 hrs PDGF-BB (1 ng/ml); mean +/- SD; vehicle only 164 +/- 10
Protocol: NNC92-0270 was analyzed for prolonged inhibitory effect on PDGF-BB mitogenic activity on baboon smooth muscle cells in a wash-out experiment. Baboon SMCs were plated at 20,000 cells per well in a 24-well culture dish and grown for 2 days. The culture media was removed and replaced with Mito Media (Table 5) to allow the cells to become quiescent. The experiment was set up such that cells were treated with NNC92-0270 or vehicle control (0.5% DMSO) for either 24 hours prior to the addition of PDGF-BB, or sequentially with the addition of PDGF-BB. Those cells initially treated with NNC92-0270 or control vehicle for 24 hours, were washed with Mito Media to remove the test compound and then incubated with PDGF-BB (1 ng/ml) for an additional 24 hours. A second set of cells was treated with NNC92-0270 or vehicle control simultaneously with PDGF-BB for 24 hours. The cells were pulse labeled for 4 hours with [^3 H] thymidine (1 μCi/ml final) harvested with trypsin and counted in a Wallac Betaplate counter to determine CPM for [^3 H] thymidine incorporation.
Acetic acid (10 mM) was used as the PDGF-BB vehicle control and 0.5% DMSO was used as the test compound control.

B1: PDGF-BB: platelet derived growth factor BB, mitogenic stimulus used for the standard curve (protein, UniProt P01127 82-190, looked up)
Platelet-derived growth …: SLGSLTIAEPAMIAECKTRTEVFEISRRLIDRTNANFLVWPPCVEVQRCSGCCNNRNVQCRPTQVQLRPVQVRKIEIVRKKPIFKKATVTLEDHLACKCETVAAARPVT
modifications: homodimer
notes: platelet derived growth factor BB, mitogenic stimulus used for the standard curve
3H Thymidine (CPM Incorporated), PDGF-BB standard curve ([1]; PDGF-BB 0.062 ng/ml): 120 CPM | 3H Thymidine (CPM Incorporated), PDGF-BB standard curve ([1]; PDGF-BB 0.125 ng/ml): 226 CPM | 3H Thymidine (CPM Incorporated), PDGF-BB standard curve ([1]; PDGF-BB 0.25 ng/ml): 392 CPM | 3H Thymidine (CPM Incorporated), PDGF-BB standard curve ([1]; PDGF-BB 0.5 ng/ml): 959 CPM | 3H Thymidine (CPM Incorporated), PDGF-BB standard curve ([1]; PDGF-BB 1 ng/ml): 1701 CPM | [3H] Thymidine Incorporation (cpm) [2]: 6370 +/- 1303 cpm
